From patent US20240324599A1, “PESTICIDAL ENZYMES FOR USE ON NEMATODES, INSECTS, AND MOLLUSKS” (priority 2023, published 2024)

Key:
Format in all cases: in vivo
[1] = system: winter wheat; assay: Field trial: esterase on MAP fertilizer, winter wheat yield and vigor; settings: for Yield: winter wheat
Protocol: (§1) Esterase A (EstA) from Bacillus subtilis (SEQ ID NO:254) was produced via fermentation of a recombinantly produced enzyme in Bacillus subtilis. 1 fl oz of fermentation product was applied onto 15 lb P/A (phosphate equivalent per acre) monoammonium phosphate (MAP) fertilizer in a concrete mixer and allowed to mix for 1 minute. A MAP control treatment without fermentation media was also created. MAP, alone or with fermentation media was distributed across 4 small replicated plots prior to planting of winter wheat with 5 replicates of 300 ft^2 each at each site.

[2] = system: corn; assay: Field trial: esterase on MAP/DAP fertilizer, corn yield; settings: for Yield: corn, 2 fl oz/A on MAP/DAP (72 lb/A Phosphate)
Protocol: Esterase A (EstA) from Bacillus subtilis (SEQ ID NO:254) was produced via fermentation of a recombinantly produced enzyme in Bacillus subtilis. 2 fl oz of fermentation product was applied onto either 72 lb P/A (phosphate equivalent per acre) monoammonium phosphate (MAP) fertilizer or diammonium phosphate (DAP) fertilizer in a concrete mixer, and allowed to mix for 1 minute. A MAP/DAP control treatment without fermentation media was also created. MAP or DAP, alone or with fermentation media was distributed across 4 small replicated plots each prior to planting of corn with 5 replicates of 400 ft2 each at each site (4 site with MAP, 4 sites with DAP, combined in data in Table 52 below).

[3] = system: winter wheat; assay: Field trial: esterase on urea fertilizer, winter wheat yield; settings: for Yield: winter wheat
Protocol: as §1, with “oz or 2 fl oz” for “oz”, “N/A (nitrogen” for “P/A (phosphate”, “urea” for “monoammonium phosphate (MAP)”, “urea” for “MAP”, “urea,” for “MAP,”

[4] = system: corn; assay: Field trial: esterase on DAP fertilizer, corn yield; settings: for Yield: corn
Protocol: (§2) Esterase A (EstA) from Bacillus subtilis (SEQ ID NO:254) was produced via fermentation of a recombinantly produced enzyme in Bacillus subtilis. 1, 2, or 3 fl oz of fermentation product was applied onto 67.5 lb P/A (phosphate equivalent per acre) diammonium phosphate (DAP) fertilizer in a concrete mixer, and allowed to mix for 1 minute. A DAP control treatment without fermentation media was also created. DAP, alone or with fermentation media was distributed across 4 small replicated plots each prior to planting of corn with 4 replicates of 400 ft^2 each at each site.

[5] = system: corn; assay: Field trial: esterase on urea with or without NBPT, corn yield; settings: for Yield: corn
Protocol: as §2, with “135” for “67.5”, “N/A (nitrogen” for “P/A (phosphate”, “urea” for “diammonium phosphate (DAP)”, “urea” for “DAP”, “An addition treatment that contained 64 fl oz/ton N-Butyl-thiophosphoric triamide (NBPT) nitrogen stabilizer or 64 fl oz/ton NBPT nitrogen stabilizer with 3 fl oz/A EstA fermentation product was also included in the trial. Urea,” for “DAP,”, “ft2” for “ft^2”

[6] = system: corn; assay: Field trial: EstA Esterase corn seed treatment, yield; settings: text to Table 59; 2.5 fl oz/unit
Source text: 2.5 fl oz/unit of EstA Esterase from recombinant Bacillus subtilis fermentation (SEQ ID NO: 254) was coated onto hybrid corn seeds treated with Fludioxinil, Azoxystrobin, mefonoxam, and thiabendaz fungicides, cyantraniliproleinsecticide, peridium 1006 polymer, and (colorant). A control treatment without esterase enzyme was also created. The seed treated with esterase and control seed was planted in replicated trials distributed across 16 replicated plots with 4 replicates of 80 ft2 each at each site.

B1: Bacillus subtilis EstA Esterase (protein, listed as Bacillus subtilis)
chain: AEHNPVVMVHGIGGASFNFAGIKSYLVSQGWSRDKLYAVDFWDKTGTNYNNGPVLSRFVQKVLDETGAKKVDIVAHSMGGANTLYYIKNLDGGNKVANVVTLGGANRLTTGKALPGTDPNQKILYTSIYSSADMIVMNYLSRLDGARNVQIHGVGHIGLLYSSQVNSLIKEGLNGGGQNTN
notes: fermentation product of recombinant Bacillus subtilis
- vigor of young wheat seedlings, in words ([1]; text to Table 51): increased the vigor
- yield versus MAP control, in words ([1]; text to Table 51, 1 fl oz fermentation product on 15 lb P/A MAP): increased the yield
- Vigor Score (1 to 5 scale, 5 is highest) ([1]; winter wheat seedlings, 1 fl oz/A on MAP (15 lb/A Phosphate), base control 4.0): 4.13
- Yield ([1]; 1 fl oz/A on MAP (15 lb/A Phosphate), base control 61.33): 62.82 Bu/A
- Yield ([1]; 1 fl oz/A on MAP (15 lb/A Phosphate), base control 4124.5): 4224.7 Kg/ha
- Yield ([2]; base control 202.3): 206.6 Bu/A
- Yield ([2]; base control 12798): 13077 Kg/ha
- yield versus MAP/DAP control, in words ([2]; text to Table 52, 2 fl oz on 72 lb P/A MAP or DAP): increased the yield
- yield versus urea control, in words ([3]; text to Table 53, 1 or 2 fl oz on 15 lb N/A urea): increased the yield
- Yield ([3]; 1 fl oz/A on Urea (15 lb/A Nitrogen), base control 76.1): 79.6 Bu/A
- Yield ([3]; 1 fl oz/A on Urea (15 lb/A Nitrogen), base control 5117.8): 5353.2 Kg/ha
- Yield ([3]; 2 fl oz/A on Urea (15 lb/A Nitrogen), base control 76.1): 79.9 Bu/A
- Yield ([3]; 2 fl oz/A on Urea (15 lb/A Nitrogen), base control 5117.8): 5375.4 Kg/ha
- Yield ([4]; 1 fl oz/A on DAP (67.5 lb/A Phosphate), base control 196.0): 201.8 Bu/A
- Yield ([4]; 1 fl oz/A on DAP (67.5 lb/A Phosphate), base control 12319.5): 12684.4 Kg/ha
- Yield ([4]; 2 fl oz/A on DAP (67.5 lb/A Phosphate), base control 196.0): 204.2 Bu/A
- Yield ([4]; 2 fl oz/A on DAP (67.5 lb/A Phosphate), base control 12319.5): 12834.7 Kg/ha
- Yield ([4]; 3 fl oz/A on DAP (67.5 lb/A Phosphate), base control 196.0): 202.6 Bu/A
- Yield ([4]; 3 fl oz/A on DAP (67.5 lb/A Phosphate), base control 12319.5): 12734.7 Kg/ha
- yield versus DAP control, in words ([4]; text to Table 54, 1, 2 or 3 fl oz on 67.5 lb P/A DAP): increased the yield
- Yield ([5]; 1 fl oz/A on Urea (135 lb/A Nitrogen), base control 188.2): 205.0 Bu/A
- Yield ([5]; 1 fl oz/A on Urea (135 lb/A Nitrogen), base control 11830.4): 12887.5 Kg/ha
- Yield ([5]; 2 fl oz/A on Urea (135 lb/A Nitrogen), base control 188.2): 195.8 Bu/A
- Yield ([5]; 2 fl oz/A on Urea (135 lb/A Nitrogen), base control 11830.4): 12309.9 Kg/ha
- Yield ([5]; 3 fl oz/A on Urea (135 lb/A Nitrogen), base control 188.2): 195.6 Bu/A
- yield versus urea control and NBPT containing treatments, in words ([5]; text to Table 55, 1, 2 or 3 fl oz on 135 lb N/A urea): increased the yield
- yield versus base seed treatment package, in words [6]: increased the yield
